Experimental data as given in patent US20220389119A1.

Biological target: WT Fc chain lacking a warhead
Assay: co-expression in HEK 293 EBNA1, protein A purification, non-reduced micro-capillary gel electrophoresis; 50 kDa = Fc homodimer lacking warheads

NR-mCE 50 kDa (%): 21.4%
Substance: WT Fc chain lacking a warhead
